How the values were obtained:
[1] = target: T1, His-tagged cynomolgus monkey DR5 (cynomolgus monkey); assay: Biacore (SPR); DR5×CD3 diabody with His-tagged cynomolgus monkey DR5
T1 construct: also called His-tagged DR5 (cynomolgus monkey)
Procedure: Bispecific DR5×CD3 diabodies were incubated with His-tagged DR5 and the kinetics of binding was determined via Biacore analysis.

histidine tagged TRAIL = target: T2, histidine tagged TRAIL (UniProt P50591 114-281, limits assumed); assay: ELISA, biotinylated antibody on TRAIL-His coat
T2 construct: also called TRAIL-His; TRAIL ligand; not shown: histidine tag

human DR5 = target: T3, human DR5 (human, UniProt O14763 56-440); assay: antibody titration read as MFI (log axis) against concentration in nM; the text does not describe the assay format or how DR5 was presented (Example 2)
T3 construct: also called Death Receptor 5; TRAIL-R2
T3 sequence (O14763 other isoform, or with tags, fused parts or gaps): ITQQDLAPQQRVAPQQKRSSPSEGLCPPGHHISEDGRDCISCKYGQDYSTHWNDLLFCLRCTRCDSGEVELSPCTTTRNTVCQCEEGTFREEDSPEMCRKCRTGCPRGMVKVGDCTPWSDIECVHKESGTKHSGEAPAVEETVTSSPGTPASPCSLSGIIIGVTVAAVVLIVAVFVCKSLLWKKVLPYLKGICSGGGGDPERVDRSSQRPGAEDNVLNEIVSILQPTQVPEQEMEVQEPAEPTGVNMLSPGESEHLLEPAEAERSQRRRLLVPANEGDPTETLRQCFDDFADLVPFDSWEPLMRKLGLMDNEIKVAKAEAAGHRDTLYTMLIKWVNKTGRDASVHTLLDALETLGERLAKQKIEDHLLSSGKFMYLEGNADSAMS

B1: DR5 mAb 2×CD3 mAb 2 (bispecific antibody)
chain 1: DIVMTQSHKFMSTSVGDRVSITCKASQDVNTAVAWYQQKPGQSPKLLIYWASTRHTGVPDRFTGSGSGTDYTLTIKSVQAEDLTLYYCQQHYITPWTFGGGTKLEIKGGGSGGGGEVQLVESGGGLVQPGGSLRLSCAASGFTFSTYAMNWVRQAPGKGLEWVGRIRSKYNNYATYYADSVKGRFTISRDDSKNSLYLQMNSLKTEDTAVYYCVRHGNFGNSYVSWFAYWGQGTLVTVSSASTKGEVAACEKEVAALEKEVAALEKEVAALEK
chain 2: QAVVTQEPSLTVSPGGTVTLTCRSSTGAVTTSNYANWVQQKPGQAPRGLIGGTNKRAPWTPARFSGSLLGGKAALTITGAQAEDEADYYCALWYSNLWVFGGGTKLTVLGGGGSGGGGKVQLQQSGAELVKPGASVKLSCKASGYTFTEYILHWVKQKSGQGLEWIGWFYPGNNNIKYNEKFKDKATLTADKSSSTVYMELSRLTSEDSAVYFCARHEQGPGYFDYWGQGTTLTVSSASTKGKVAACKEKVAALKEKVAALKEKVAALKE
notes: also called DR5 mAb 2×CD3 mAb 2 diabody
Work on B1 yielded a Kd [1] of 0.42 nM.

B2: DR5 mAb 1×CD3 mAb 2 (bispecific antibody)
chain 1: DIVLTQSPASLAVSLGQRATISCRASKSVSSSGYSYMHWYQQKPGQPPKVLIFLSSNLDSGVPARFSGSGSGTDFTLNIHPVEDGDAATYYCQHSRDLPPTFGGGTKLEIKGGGSGGGGEVQLVESGGGLVQPGGSLRLSCAASGFTFSTYAMNWVRQAPGKGLEWVGRIRSKYNNYATYYADSVKGRFTISRDDSKNSLYLQMNSLKTEDTAVYYCVRHGNFGNSYVSWFAYWGQGTLVTVSSASTKGEVAACEKEVAALEKEVAALEKEVAALEK
chain 2: QAVVTQEPSLTVSPGGTVTLTCRSSTGAVTTSNYANWVQQKPGQAPRGLIGGTNKRAPWTPARFSGSLLGGKAALTITGAQAEDEADYYCALWYSNLWVFGGGTKLTVLGGGGSGGGGEVKFLESGGGLVQPGGSLKLSCVASGFDFSRYWMSWVRQAPGKGLEWIGEINPDSNTINYTPSLKDKFIISRDNAKNTLYLQMTKVRSEDTALYYCTRRAYYGNPAWFAYWGQGTLVTVSSASTKGKVAACKEKVAALKEKVAALKEKVAALKE
notes: also called bispecific DR5×CD3 diabody
B2 was tested, and the Kd [1] was 32.5 nM.

B3: DR5 mAb 4×CD3 mAb 2 (bispecific antibody)
chain 1: EIVLTQSPGTLSLSPGERATLSCRASQGISRSYLAWYQQKPGQAPSLLIYGASSRATGIPDRFSGSGSGTDFTLTISRLEPEDFAVYYCQQFGSSPWTFGQGTKVEIKGGGSGGGGEVQLVESGGGLVQPGGSLRLSCAASGFTFSTYAMNWVRQAPGKGLEWVGRIRSKYNNYATYYADSVKGRFTISRDDSKNSLYLQMNSLKTEDTAVYYCVRHGNFGNSYVSWFAYWGQGTLVTVSSASTKGEVAACEKEVAALEKEVAALEKEVAALEK
chain 2: QAVVTQEPSLTVSPGGTVTLTCRSSTGAVTTSNYANWVQQKPGQAPRGLIGGTNKRAPWTPARFSGSLLGGKAALTITGAQAEDEADYYCALWYSNLWVFGGGTKLTVLGGGGSGGGGQVQLQESGPGLVKPSQTLSLTCTVSGGSISSGDYFWSWIRQLPGKGLEWIGHIHNSGTTYYNPSLKSRVTISVDTSKKQFSLRLSSVTAADTAVYYCARDRGGDYYYGMDVWGQGTTVTVSSASTKGKVAACKEKVAALKEKVAALKEKVAALKE
notes: also called diabody with the VL and VH Domains of conatumumab
For B3, the Kd [1] was 16.4 nM.

B4: DR5 mAb 1 (antibody, V domains shown)
VH: EVKFLESGGGLVQPGGSLKLSCVASGFDFSRYWMSWVRQAPGKGLEWIGEINPDSNTINYTPSLKDKFIISRDNAKNTLYLQMTKVRSEDTALYYCTRRAYYGNPAWFAYWGQGTLVTVSS
VL: DIVLTQSPASLAVSLGQRATISCRASKSVSSSGYSYMHWYQQKPGQPPKVLIFLSSNLDSGVPARFSGSGSGTDFTLNIHPVEDGDAATYYCQHSRDLPPTFGGGTKLEIK
notes: also called anti-human DR5 monoclonal antibody DR5 mAb 1
With B4 the binding result (histidine tagged TRAIL) was “no binding” and the “EC50 (read off the curve)” value (human DR5) was ~1 nM.

B5: DR5 mAb 3×CD3 mAb 2 (bispecific antibody)
chain 1: SELTQDPAVSVALGQTVRITCSGDSLRSYYASWYQQKPGQAPVLVIYGANNRPSGIPDRFSGSSSGNTASLTITGAQAEDEADYYCNSADSSGNHVVFGGGTKLTVLGGGGSGGGGEVQLVESGGGLVQPGGSLRLSCAASGFTFSTYAMNWVRQAPGKGLEWVGRIRSKYNNYATYYADSVKGRFTISRDDSKNSLYLQMNSLKTEDTAVYYCVRHGNFGNSYVSWFAYWGQGTLVTVSSASTKGEVAACEKEVAALEKEVAALEKEVAALEK
chain 2: QAVVTQEPSLTVSPGGTVTLTCRSSTGAVTTSNYANWVQQKPGQAPRGLIGGTNKRAPWTPARFSGSLLGGKAALTITGAQAEDEADYYCALWYSNLWVFGGGTKLTVLGGGGSGGGGEVQLVQSGGGVERPGGSLRLSCAASGFTFDDYAMSWVRQAPGKGLEWVSGINWQGGSTGYADSVKGRVTISRDNAKNSLYLQMNSLRAEDTAVYYCAKILGAGRGWYFDYWGKGTTVTVSSASTKGKVAACKEKVAALKEKVAALKEKVAALKE
notes: also called diabody with the VL and VH Domains of drozitumab
For B5, the Kd [1] was 13.3 nM.

B6: DR5 mAb 2 (antibody, V domains shown)
VH: KVQLQQSGAELVKPGASVKLSCKASGYTFTEYILHWVKQKSGQGLEWIGWFYPGNNNIKYNEKFKDKATLTADKSSSTVYMELSRLTSEDSAVYFCARHEQGPGYFDYWGQGTTLTVSS
VL: DIVMTQSHKFMSTSVGDRVSITCKASQDVNTAVAWYQQKPGQSPKLLIYWASTRHTGVPDRFTGSGSGTDYTLTIKSVQAEDLTLYYCQQHYITPWTFGGGTKLEIK
notes: It is a murine antibody; also called murine anti-human antibody DR5 mAb 2; DR mAb 2
B6: no binding (histidine tagged TRAIL).
